The values that follow come from patent CN115960237A.

Some results are limits rather than exact numbers.

This experiment deals with OXA-48酶抗原 (recombinant OXA-48 enzyme antigen) (UniProt Q6XEC0). The experiment can be described thus: indirect ELISA, OXA-48 antigen coated at 100 ng per well, goat anti-rabbit IgG-HRP, OD450.
Sequence of UniProt Q6XEC0 (Q6XEC0 23-265 limits assumed): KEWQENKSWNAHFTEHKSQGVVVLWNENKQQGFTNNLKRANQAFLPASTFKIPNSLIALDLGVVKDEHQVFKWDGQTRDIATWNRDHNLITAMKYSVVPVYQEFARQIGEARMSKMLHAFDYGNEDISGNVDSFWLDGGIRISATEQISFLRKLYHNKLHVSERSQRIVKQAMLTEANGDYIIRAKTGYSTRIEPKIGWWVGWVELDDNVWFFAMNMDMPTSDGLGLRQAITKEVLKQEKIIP

B1: 第二单克隆抗体 (second anti-OXA-48 enzyme monoclonal antibody) (antibody, V domains shown)
VH: EVQLVESGGGLVKPGGSLRLSCAASGFTFSGYWMHWVRQAPEKGLVWVAYINSDGSSTNYADSVKGRFTISRDNAKNTLFLQMNSLRAEDTAMYYCARGGGYSYGPFDYWGQGTSVTVSS
VL: QSVLTQPSSASTSPGSSVKLSCTGTSSDIGNNDYVSWYQQYMGRPPTNIIYDVSRRPSGVSDRFSGSIDRSSNTAFLTVNNVQADDEADYYCSSYAGSSNLVFGGGTKLTV
Regarding B1, the OD值 (OD450 at 1:1280000 dilution) was > 0.5 OD and the 效价 (ELISA titer) (dilution factor (1:x)) was 1.28e+06.

B2: 第一单克隆抗体 (first anti-OXA-48 enzyme monoclonal antibody) (antibody, V domains shown)
VH: EVKLVESGGGLVQPGRSLRLSCATSGFTFADYSMTWVRQPPGKGLEWVGLIKRNAYGGTTEYAASVRGRFTISRDNSQSIAYLQMNTLRTEDTPAYYCLRGYSGYDWEGLDAFDVWGQGTMVTVSS
VL: DIVMSQSPSSLAVSLGEKVTINCKSGQSVLFTSNNKNYLAWYQQKPGQPPKLLISWASTRESGVPDRFSGSGSGTDFTLAISSVQAEDVAVYYCQQYYSPGPFTFGQGTKVEIK
Turning to B2, the OD值 (OD450 at 1:1280000 dilution) was 0.5 OD and the 效价 (ELISA titer) (dilution factor (1:x)) came to 1.28e+06.
